Assay results taken from article PMC8861512, “Characterization and Secretory Expression of a Thermostable Tannase from Aureobasidium melanogenum T9: Potential Candidate for Food and Agricultural Industries” (Frontiers in Bioengineering and Biotechnology, 2022).

Tests used:
Experiment in all cases: purified protein
Format in all cases: biochemical, Aureobasidium melanogenum
Details in all cases: standard assay: 100 mM Na2HPO4-citric acid buffer, pH 5.0, 40 °C
[1] = substrate: CCCOC(=O)c1cc(O)c(O)c(O)c1
[2] = substrate: O=C(O[C@@H]1Cc2c(O)cc(O)cc2O[C@@H]1c1ccc(O)c(O)c1)c1cc(O)c(O)c(O)c1
[3] = substrate: COC(=O)c1cc(O)c(O)c(O)c1
[4] = substrate: O=C(O[C@@H]1Cc2c(O)cc(O)cc2O[C@@H]1c1cc(O)c(O)c(O)c1)c1cc(O)c(O)c(O)c1
[5] = substrate: O=C(O[C@@H]1Cc2c(O)cc(O)cc2O[C@H]1c1cc(O)c(O)c(O)c1)c1cc(O)c(O)c(O)c1

B1: TanA (Aureobasidium melanogenum) (protein)
chain: SKDCSKATFQKVIPSNSTFNYVTKVAEGGTFTDAEANANATGLPEGCAVSVKVPTPGNSSYNMAIYMPNKWNSRIITTGNGGYGGFTNWQDLGQYSHYGFSAITTDTGHFNPNVLDSTFALNKGSLENWGWRAMHGSVLVGKALSAAYYGQTHKFSYYSGCSTGGRQGLKEMQVSPDAFDGVFVGAPAWWIPHLSIWTSQATLANLPQNSDHHISAALANVINDEILKQCDPQDGVTDNVIMNPAGCVFNPLTLLCEGAANASACITRPQLDTLYKALHDWTYFDGTLIFPVPSLGTPLVAYIGDSPIPNPMGTGAIEHMLLNTTEPYDWSTFNESVVRLSEAIDPGHGTPDNYDLSTFQKRGGKVIHWHGEADPIIPFRSSSYFYSQVASSVAPHDIEMDSFYKFFPIAGMSHCSGSQYSPWYIAGATQPLTNVSHGVPGFDDAQHNGLLALMRWVENGTAPEQLVATKYNNDDPTKGVYRQRPLCPFPKQPIYTHGNVDSASSWKCS
notes: codon-optimised, signal peptide (first 19 of 528 residues) removed; 6xHis tag kept; secreted by Yarrowia lipolytica, Ni-IDA purified
Km [1]: 1710 µM
Km [2]: 2130 µM
Km [3]: 2810 µM
Km [4]: 2520 µM
Km [5]: 1860 µM
